Measured values: patent US8236540B2, “Isolated luciferases and the use thereof” (Bayer Intellectual Property GmbH, priority 2000, dated 2012)

B1: Lu164: coelenterazine-dependent secreted luciferase from Metridia longa, amino acid sequence SEQ ID NO: 4 (protein, listed as Metridia longa)
chain: MDIKVVFTLVFSALVQAKSTEFDPNIDIVGLEGKFGITNLETDLFTIWETMEVMIKADIADTDRASNFVATETDANRGKMPGKKLPLAVIMEMEANAFKAGCTRGCLICLSKIKCTAKMKVYIPGRCHDYGGDKKTGQAGIVGAIVDIPEISGFKEMAPMEQFIAQVDRCASCTTGCLKGLANVKCSELLKKWLPDRCASFADKIQKEVHNIKGMAGDR
B2: Lu22: coelenterazine-dependent secreted luciferase from Metridia longa, amino acid sequence SEQ ID NO: 6 (protein, listed as Metridia longa)
chain: MGVKLIFAVVCVAVAQAATIQENFEDIDLVAIGGSFASDVDANRGGHGGHPGKKMPKEVLMEMEANAKRAGCHRGCLVCLSHIKCTAQMQKFIPGRCHSYAGDKDSAQGGIAGGAIVDIPEIAGFKEMKPMEQFIAQVDLCEDCTTGCLKGLANVHCSDLLKKWLPSRCKTFASKIQSQVDTIKGLAGDR
B3: LuAL: coelenterazine-dependent secreted luciferase from Metridia longa, amino acid sequence SEQ ID NO: 2 (protein, listed as Metridia longa)
chain: MDMRVIFALVFSSLVQAKSTEFDPNINIVGLEGKFGITNLETDLFTIWETMDVIKSDITDTDRVSNFVATETDANRGKMPGKKLPLAVIMEMEANAFKAGCTRGCLICLSKIKCTAKMKVYIPGRCHDYGGDKKTGQAGIVGAIVDIPEISGFKEMAPMEQFIAQVDLCATCTTGCLKGLANVKCSELLKKWLPGRCASFADKIQKEVHNIKGMAGDR

Columns and labels:
Lu164 = assay: Coelenterazine derivatives as substrates of Lu164 (luminescence with CHO-pcDNA3-Lu164 supernatant); format: biochemical, Metridia longa; details: 10 μl derivative (10^-4 M) + 10 μl supernatant of CHO-pcDNA3-Lu164, 8.7 kV for 30 seconds
Description: In order to identify substrates for Lu164, 10 μl solutions of different coelenterazine derivatives (10^−4 M) were in each case incubated with 10 μl of supernatant from CHO-pcDNA3-Lu164 cell lines and the luminescence was measured. The coelenterazines were obtained from Molecular Probes (USA).

LuAL = assay: Coelenterazine derivatives as substrates of LuAL; format: biochemical, Metridia longa; details: coelenterazine derivatives 10^-4 M
Lu22 = assay: Coelenterazine derivatives as substrates of Lu22; format: biochemical, Metridia longa; details: coelenterazine derivatives 10^-4 M
[1] = Luciferase activity (chemiluminescence) of bacterial lysate after adding coelenterazine; format: biochemical; details: 5 μl E. coli BL21(DE3) lysate (5 mg/ml), pTriplEx2 vectors, coelenterazine 10^-4 M, 9.5 kV for 30 seconds
Description: The bacterial expression took place in the E. coli strain BL21(DE3) as a result of transforming the bacteria with the expression plasmids pTriplEX2-Lu164, pTriplEX2-LuAL and pTriplEX2-Lu22. The transformed bacteria were incubated at 37° C. for 3 hours in LB medium and expression was induced for 4 hours by adding IPTG to a final concentration of 1 mM. The induced bacteria were harvested by centrifugation, resuspended in PBS and disrupted by ultrasonication. Coelenterazine (10^−4 M in methanol) or luciferin (Firefly Luciferin) was added to 5 μl of the lysate (5 mg/ml) and the chemiluminescence was measured.
The measurement, in RLU (relative light units), took place at 9.5 kV for 30 seconds. Values of 230 000, 320 000 and 260 000 RLU were measured in the case of Lu1 64, LuAL and Lu22, respectively. The enzymes were expressed in E. coli BL21(DE3) using the vectors pTriplEx2-Lu164, pTriplEx2-LuAL and pTriplEx2-Lu22.

[2] = Luciferase activity (chemiluminescence) after constitutive eukaryotic expression in transiently transfected CHO cells; format: cell-based; details: CHO cells transiently transfected with pcDNA3 vectors, 5 μl, coelenterazine 10^-4 M, 9.5 kV for 30 seconds, room temperature
Description: Constitutive eukaryotic expression was affected in CHO cells by transfecting the cells with the expression plasmids pcDNA3-Lu164, pcDNA3-LuAL and pcDNA3-Lu22 in transient experiments. For this, 10 000 cells in DMEM-F12 medium were plated, per well, in 96-well microtiter plates and incubated overnight at 37° C. The transfection was effected using the Fugene 6 kit (Roche) in accordance with the manufacturer's instructions. The transfected cells were incubated overnight at 37° C. in DMEM-F12 medium. The chemiluminescence in the medium (5 ul) and the cell lysate (5 μl) was measured for 30 seconds at 9.5 kV in a luminometer, at room temperature, after adding coelenterazine (10^−4 M in methanol).
Values of 680 000, 670 000 and 510 000 RLU (relative light units) were measured in the case of Lu1 64, LuAL and Lu22, respectively. The expression was effected in CHO cells using the vectors pcDNA3-Lu164, pcDNA3-LuAL and pcDNA3-Lu22.

Row | Molecule | substrate suitability for Lu164 (luminescence) (Lu164) | substrate suitability for LuAL (luminescence) (LuAL) | substrate suitability for Lu22 (luminescence) (Lu22) | chemiluminescence, RLU (relative light units) [1] | chemiluminescence, RLU (relative light units) [2]
1 | Oc1ccc(Cc2nc3c(Cc4ccccc4)nc(-c4ccc(O)cc4)cn3c2O)cc1 [coelenterazine] | optimal substrate | optimal substrate | optimal substrate |  | 
2 | B1 |  |  |  | 230 000 RLU | 680 000 RLU
3 | B2 |  |  |  | 260 000 RLU | 510 000 RLU
4 | B3 |  |  |  | 320 000 RLU | 670 000 RLU
